Results as given in US6399759.

Assays:
Experiment in all cases: cell-based or functional assay
[1] = molecular target: Soli C1 (Solenopsis invicta)
[2] = molecular target: T1, Soli E2 (Solenopsis invicta)
T1 sequence: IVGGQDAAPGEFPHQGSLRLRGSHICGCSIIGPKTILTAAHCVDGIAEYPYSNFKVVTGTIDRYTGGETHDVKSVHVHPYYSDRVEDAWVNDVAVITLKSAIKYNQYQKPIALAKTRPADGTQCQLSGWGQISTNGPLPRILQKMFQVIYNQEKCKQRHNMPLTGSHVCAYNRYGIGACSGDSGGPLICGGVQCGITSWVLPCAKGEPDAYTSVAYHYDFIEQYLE

[3] = molecular target: Soli C2 (Solenopsis invicta)
[4] = molecular target: Soli E1 (Solenopsis invicta)
Soli E1 (Solenopsis invicta), sequence (main, as listed by the source): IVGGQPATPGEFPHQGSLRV

Soli C2 (Solenopsis invicta), sequence (main, as listed by the source): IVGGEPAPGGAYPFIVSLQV
Soli C1 (Solenopsis invicta), sequence (Q7SIG2 other isoform, or with tags, fused parts or gaps): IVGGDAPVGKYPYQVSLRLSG

B1: Soy Bean Trypsin Inhibitor I-S (protein, soybean, UniProt P01070 25-205, looked up)
chain: DFVLDNEGNPLENGGTYYILSDITAFGGIRAAPTGNERCPLTVVQSRNELDKGIGTIISSPYRIRFIAEGHPLSLKFDSFAVIMLCVGIPTEWSVVEDLPEGPAVKIGENKDAMDGWFRLERVSDDEFNNYKLVFCPQQAEDDKCGDIGISIDHDDGTRRLVVSKNKPLVVQFQKLDKESL
[1]
  IC50: 37 nM
[2]
  IC50: 5.58 nM
[3]
  IC50: 1.41 nM
[4]
  IC50: 4.22 nM
